± gives the standard deviation.
Experiment: protein stability index of a GFP-peptide fusion (GPS, HEK-293T) (PSI 1-6); higher = more stable
[1] = treatment: DMSO, c terminus: a fixed tail appended
[2] = treatment: MLN4924 1 uM, 8 h, c terminus: a fixed tail appended
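Also: 24-mer peptide tiles fused after GFP, lentivirally expressed, FACS-sorted into six equal bins by GFP/DsRed ratio, decoded by Illumina sequencing, PSI is the read-weighted mean bin number.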

| Sequence | protein stability index [1] | protein stability index [2] | protein stability index (treatment: DMSO, c terminus: native) | protein stability index (treatment: MLN4924 1 uM, 8 h, c terminus: native) |
| --- | --- | --- | --- | --- |
| HIENGPFSLEQQLDDEDDDEEDCP [SRPK2] | 5.44 ± 0.4 | 5.46 ± 0.2 | – | – |
| AASISDGDCDAREEKQRELARKGS [FAM219A] | 5.54 ± 0.2 | 5.52 ± 0.2 | – | – |
| NLLFKPPVESHIQKNKKILKSAKD [KMT2E] | 3.61 ± 0.099 | 3.6 ± 0.38 | – | – |
| LTQPLQGGTPHCEPCQLPSESPGS [DNAAF3] | 5.17 ± 0.2 | 5.12 ± 0.12 | – | – |
| IPERLSIFCRDTQTVFQKKNLQQT [IQUB] | 2.87 ± 0.19 | 2.98 ± 0.51 | – | – |
| QAQIELRLLELMNQHDTEMKYYIV [DYRK1B] | 2.24 ± 0.23 | 2.49 ± 0.47 | – | – |
| LMAPTCVFLASKVEEFGVVSNTRL [CCNC] | 2.2 ± 0.34 | 2.21 ± 0.14 | – | – |
| PAFPFIYTPTAEDSAQMQNGGPST [ANKRD40] | 4.55 ± 0.12 | 4.5 ± 0.23 | – | – |
| SPVVAMTSRRSGVGLAVVNGQLMA [KLHL20] | 2.88 ± 0.36 | 2.95 ± 0.43 | – | – |
| ERTGFSIRPVAGYLSPRDFLSGLA [TPH1] | 2.25 ± 0.048 | 2.36 ± 0.35 | – | – |
| IQVVLNGMESYQEVTVQRNCCLTL [ZER1] | 3.21 ± 0.47 | 3.01 ± 0.73 | – | – |
| LVDEEEKVLIQKNLGPKSKVLILR [ADD1] | 3.16 ± 0.5 | 2.84 ± 0.25 | – | – |
| RFYFENLLAKNSKPIHTTILNPHV [CAMK2B] | 2.2 ± 0.11 | 2.23 ± 0.23 | – | – |
| PQKSYFIRLYGLQAGRLLWEQELY [WAS] | 2.28 ± 0.32 | 2.15 ± 0.19 | – | – |
| AMEPEPAPAPAPEEWLDILGNGLL [FKBP8] | 4.47 ± 0.1 | 4.59 ± 0.41 | – | – |
| VDRCGASVEAGGSVHFDGETIEGA [FEM1A] | 4.87 ± 0.24 | 4.92 ± 0.18 | – | – |
| HRGCGDGCCCPSCYRRYRFTGFY [KRTAP19-2] | – | – | 2.83 ± 0.59 | 3.31 ± 0.47 |
| SSIGRLFGKKEKGRLIQLSRDGAT [PPFIA4] | 3.19 ± 0.48 | 3.38 ± 0.54 | – | – |
| YSFYLFHPLAYGMVGPLAQDPQSP [POMT2] | 2.45 ± 0.7 | 2.67 ± 0.43 | – | – |
| TLAQTISEAAIGGAMLGQTTSEEA [HDAC6] | 4.66 ± 0.32 | 4.78 ± 0.28 | – | – |
| SNSEKAKNIFRIRFHDPSPAQSHT [NET1] | 3.13 ± 0.2 | 3.06 ± 0.37 | – | – |
| TAEAEELKPFFMKEVGSHFDDFVT [SOAT1] | 3.91 ± 0.25 | 3.94 ± 0.34 | – | – |
| HVLHHGTGKWYELQDLQVTDILPQ [USP39] | 2.82 ± 0.4 | 2.95 ± 0.39 | – | – |

| Sequence | protein stability index [1] | protein stability index [2] | protein stability index (treatment: DMSO, c terminus: native) | protein stability index (treatment: MLN4924 1 uM, 8 h, c terminus: native) |
| --- | --- | --- | --- | --- |
| LPGNEEFQVVKDAVLDCLLDFLPK [TENT5D] | 2.32 ± 0.39 | 2.4 ± 0.21 | – | – |
| DRSTEPDRLQVFHKRAIMPYGVYK [ATE1] | 3.44 ± 0.24 | 3.47 ± 0.26 | – | – |
| NHFDMHRVGKWHQDFPVKKRKKLS [ZNF75A] | 3.56 ± 0.24 | 3.92 ± 0.076 | – | – |
| HQRTHSEEETYKCLECGKSFCHGS [ZNF449] | 4.63 ± 0.3 | 4.59 ± 0.3 | – | – |
| ALDERAKVLHEDKQTREQLHSISD [TRIM29] | 5.25 ± 0.27 | 5.31 ± 0.37 | – | – |
| MELQKGKGAAAAAAASGAAGGGGG [INTS3] | 5.19 ± 0.43 | 5.26 ± 0.36 | – | – |
| QRNGLVFIYDMCGSNYANFELDLG [PTPN9] | 2.84 ± 0.23 | 2.37 ± 0.57 | – | – |
| ISGGFDRTVAIWDVAEGYRKLSLK [WDR88] | 3.09 ± 0.49 | 3.02 ± 0.36 | – | – |
| STMRRMALRPTAFSGCLNCSKVSE [EMID1] | 2.5 ± 0.21 | 3.13 ± 0.62 | – | – |
| RLINHSKCGNCQTKLHDIDGVPHL [KMT5A] | 2.67 ± 0.45 | 2.64 ± 0.36 | – | – |
| AFGKICHMVSDGSWVVRVQAAKLL [INTS4] | 2.74 ± 0.49 | 2.88 ± 0.58 | – | – |
| DHLGWVARGTGSGEDSSTSSSTPL [RTN2] | 4.73 ± 0.18 | 4.54 ± 0.25 | – | – |
| MEAVLNELVSVEDLLKFEKKFQSE [FIS1] | 3.69 ± 0.25 | 3.65 ± 0.27 | – | – |
| LLLEPGSLYILRGSARYDFSHEIL [ALKBH7] | 2.58 ± 1.2 | 2.58 ± 1.3 | – | – |
| SRRREQSSSRNSHLVQHQHPNSRK [ZNF8] | 5.14 ± 0.46 | 5.41 ± 0.075 | – | – |
| LDSVSPCPSSPKQIHLDVDNDRTT [DLC1] | 5.37 ± 0.13 | 5.55 ± 0.099 | – | – |
| FFRKLLDCCQVSAPNRFFQKLNVF [NLN] | 2.02 ± 0.073 | 2.47 ± 0.74 | – | – |
| QKAGVTRSGRLILWEAPPLGAGGG [NEK8] | 3.31 ± 0.29 | 2.95 ± 0.32 | – | – |
| DEDSEPEREVRAKNGRVDSEDRRS [USP39] | 5.62 ± 0.33 | 5.517 ± 0.016 | – | – |
| CLGLSYDGLLGDNQIMPKAGLLII [MAGEA3] | 3.12 ± 0.68 | 2.73 ± 0.61 | – | – |
| EPLYNWQATKASLKERFAFLFNSE [BTBD1] | 2.97 ± 0.22 | 2.78 ± 0.37 | – | – |
| RVFRVTFLMLAVSLTVPLLGAMML [APMAP] | 2.2 ± 0.43 | 2.4 ± 0.55 | – | – |

— the supplement of paper PMC10567573
